The series deals with T1, LrhCas9-NLS (Lactobacillus rhamnosus).
T1 chain: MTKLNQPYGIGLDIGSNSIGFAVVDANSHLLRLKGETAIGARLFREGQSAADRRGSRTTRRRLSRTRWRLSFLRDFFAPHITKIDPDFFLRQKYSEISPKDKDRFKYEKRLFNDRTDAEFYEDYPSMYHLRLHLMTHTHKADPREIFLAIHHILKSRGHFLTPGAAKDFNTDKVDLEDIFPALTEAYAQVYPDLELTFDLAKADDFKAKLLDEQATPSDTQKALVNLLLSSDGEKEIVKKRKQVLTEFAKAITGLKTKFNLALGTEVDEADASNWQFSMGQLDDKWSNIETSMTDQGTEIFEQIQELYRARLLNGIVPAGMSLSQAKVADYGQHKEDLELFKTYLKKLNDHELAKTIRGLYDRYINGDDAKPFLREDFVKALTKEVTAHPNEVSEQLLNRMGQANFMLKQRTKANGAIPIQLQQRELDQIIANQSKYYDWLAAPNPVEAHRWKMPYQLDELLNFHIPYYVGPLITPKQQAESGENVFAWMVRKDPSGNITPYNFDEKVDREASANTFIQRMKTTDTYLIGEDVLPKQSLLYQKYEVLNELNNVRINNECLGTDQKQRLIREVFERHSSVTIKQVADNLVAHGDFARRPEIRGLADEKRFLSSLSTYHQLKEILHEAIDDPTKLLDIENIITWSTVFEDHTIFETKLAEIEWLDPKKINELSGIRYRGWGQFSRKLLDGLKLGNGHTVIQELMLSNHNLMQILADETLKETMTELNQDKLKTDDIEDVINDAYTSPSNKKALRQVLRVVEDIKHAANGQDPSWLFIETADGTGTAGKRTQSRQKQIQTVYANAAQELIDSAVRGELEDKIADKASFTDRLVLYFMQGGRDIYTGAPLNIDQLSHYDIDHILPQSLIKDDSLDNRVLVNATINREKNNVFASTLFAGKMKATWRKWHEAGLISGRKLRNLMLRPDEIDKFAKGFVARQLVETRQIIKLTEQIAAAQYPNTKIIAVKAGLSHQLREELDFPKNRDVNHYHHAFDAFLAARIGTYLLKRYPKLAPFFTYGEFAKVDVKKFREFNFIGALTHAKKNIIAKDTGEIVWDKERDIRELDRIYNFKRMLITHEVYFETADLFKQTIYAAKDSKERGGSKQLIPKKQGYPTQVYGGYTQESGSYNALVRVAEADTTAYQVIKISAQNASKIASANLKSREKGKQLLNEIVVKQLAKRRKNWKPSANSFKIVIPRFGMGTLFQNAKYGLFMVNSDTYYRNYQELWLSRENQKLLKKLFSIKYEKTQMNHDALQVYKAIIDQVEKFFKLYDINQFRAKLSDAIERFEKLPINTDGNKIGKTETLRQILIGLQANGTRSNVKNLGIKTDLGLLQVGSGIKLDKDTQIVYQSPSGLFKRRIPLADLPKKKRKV
Briefly: cell_activity; PAM NGAAA; K562. The note with it: tags: C-terminal SV40 NLS.

For 2 molecules, activity results are on record in patent publication US12297449, “Engineered CAS9 systems for eukaryotic genome modification” (Sigma-Aldrich Co. LLC).

B1: Lrh POR target 1 sgRNA ; POR target 1 (ssRNA ; dsDNA)
RNA: GCUCGUACUGGCGAAUGCUGUCUCAGGUAGAUGUCAGAUCAAUCAGAAAUGAUUGAUCUGACAUCUACGAGUUGAGAUCAAACAAAGCUUCAGCUGAGUUUCAAUUUCUGAGCCCAUGUUGGGCCAUACAUAUGCCACCCGAGUGCAAAUCGGGUGGCUUUUUUU
DNA 1: GCTCGTACTGGCGAATGCTGGAAA
DNA 2: TTTCCAGCATTCGCCAGTACGAGC
B1 had an activity of 26.7 % indel.

B2: Lrh CAR target 2 sgRNA ; CAR target 2 (ssRNA ; dsDNA)
RNA: GUGAGAGUCUCCUCCCCAAUGGUCUCAGGUAGAUGUCAGAUCAAUCAGAAAUGAUUGAUCUGACAUCUACGAGUUGAGAUCAAACAAAGCUUCAGCUGAGUUUCAAUUUCUGAGCCCAUGUUGGGCCAUACAUAUGCCACCCGAGUGCAAAUCGGGUGGCUUUUUUU
DNA 1: GTGAGAGTCTCCTCCCCAATGGGAAA
DNA 2: TTTCCCATTGGGGAGGAGACTCTCAC
B2 yielded an activity of 27 % indel.
